From IntAct's records for PubMed 25281266

B1: Peregrin (Homo sapiens), P55201 (parent)
chain: MGVDFDVKTFCHNLRATKPPYECPVETCRKVYKSYSGIEYHLYHYDHDNPPPPQQTPLRKHKKKGRQSRPANKQSPSPSEVSQSPGREVMSYAQAQRMVEVDLHGRVHRISIFDNLDVVSEDEEAPEEAPENGSNKENTETPAATPKSGKHKNKEKRKDSNHHHHHNVSASTTPKLPEVVYRELEQDTPDAPPRPTSYYRYIEKSAEELDEEVEYDMDEEDYIWLDIMNERRKTEGVSPIPQEIFEYLMDRLEKESYFESHNKGDPNALVDEDAVCCICNDGECQNSNVILFCDMCNLAVHQECYGVPYIPEGQWLCRRCLQSPSRAVDCALCPNKGGAFKQTDDGRWAHVVCALWIPEVCFANTVFLEPIDSIEHIPPARWKLTCYICKQRGSGACIQCHKANCYTAFHVTCAQQAGLYMKMEPVRETGANGTSFSVRKTAYCDIHTPPGSARRLPALSHSEGEEDEDEEEDEGKGWSSEKVKKAKAKSRIKMKKARKILAEKRAAAPVVSVPCIPPHRLSKITNRLTIQRKSQFMQRLHSYWTLKRQSRNGVPLLRRLQTHLQSQRNCDQVGRDSEDKNWALKEQLKSWQRLRHDLERARLLVELIRKREKLKRETIKVQQIAMEMQLTPFLILLRKTLEQLQEKDTGNIFSEPVPLSEVPDYLDHIKKPMDFFTMKQNLEAYRYLNFDDFEEDFNLIVSNCLKYNAKDTIFYRAAVRLREQGGAVLRQARRQAEKMGIDFETGMHIPHSLAGDEATHHTEDAAEEERLVLLENQKHLPVEEQLKLLLERLDEVNASKQSVGRSRRAKMIKKEMTALRRKLAHQRETGRDGPERHGPSSRGSLTPHPAACDKDGQTDSAAEESSSQETSKGLGPNMSSTPAHEVGRRTSVLFSKKNPKTAGPPKRPGRPPKNRESQMTPSHGGSPVGPPQLPIMSSLRQRKRGRSPRPSSSSDSDSDKSTEDPPMDLPANGFSGGNQPVKKSFLVYRNDCSLPRSSSDSESSSSSSSSAASDRTSTTPSKQGRGKPSFSRGTFPEDSSEDTSGTENEAYSVGTGRGVGHSMVRKSLGRGAGWLSEDEDSPLDALDLVWAKCRGYPSYPALIIDPKMPREGMFHHGVPIPVPPLEVLKLGEQMTQEAREHLYLVLFFDNKRTWQWLPRTKLVPLGVNQDLDKEKMLEGRKSNIRKSVQIAYHRALQHRSKVQGEQSSETSDSD

Variants of: B1
Conditions: with h2a1_human H2AC11, P0C0S8

Row | effect of a mutation on the interaction | Variant
1 | decreasing interaction | E661A

Variants of: B1
Conditions: with h4_human H4C16, P62805

Row | effect of a mutation on the interaction | Variant
2 | decreasing interaction | E661A

Variants of: B1
Conditions: with h2a1_human H2AC11, P0C0S8
Remark: another data set of the same source

Row | effect of a mutation on the interaction | Variant
3 | decreasing interaction | C704A

Variants of: B1
Conditions: with h4_human H4C16, P62805
Remark: another data set of the same source

Row | effect of a mutation on the interaction | Variant
4 | decreasing interaction | C704A

Variants of: B1
Conditions: with h2a1_human H2AC11, P0C0S8
Remark: another data set of the same source

Row | effect of a mutation on the interaction | Variant
5 | decreasing interaction | I713A

Variants of: B1
Conditions: with h4_human H4C16, P62805
Remark: another data set of the same source

Row | effect of a mutation on the interaction | Variant
6 | decreasing interaction | I713A

Variants of: B1
Conditions: with h2a1_human H2AC11, P0C0S8
Remark: another data set of the same source

Row | effect of a mutation on the interaction | Variant
7 | disrupting interaction | N708A

Variants of: B1
Conditions: with h4_human H4C16, P62805
Remark: another data set of the same source

Row | effect of a mutation on the interaction | Variant
8 | disrupting interaction | N708A

Variants of: B1
Conditions: with h2a1_human H2AC11, P0C0S8
Remark: another data set of the same source

Row | effect of a mutation on the interaction | Variant
9 | decreasing interaction | A709S

Variants of: B1
Conditions: with h4_human H4C16, P62805
Remark: another data set of the same source

Row | effect of a mutation on the interaction | Variant
10 | decreasing interaction | A709S

Variants of: B1
Conditions: with h2a1_human H2AC11, P0C0S8
Remark: another data set of the same source

Row | effect of a mutation on the interaction | Variant
11 | disrupting interaction | F714A

Variants of: B1
Conditions: with h4_human H4C16, P62805
Remark: another data set of the same source

Row | effect of a mutation on the interaction | Variant
12 | disrupting interaction | F714A
